# Measurements as given in the supplement of paper PMC9942255.
# Where “and” joins values, the source holds several entries; their conditions need not be identical. Equal entries are not always repeated.
# Tested on: Bacillus subtilis DB104 (SP-AmyQ fusion secretion)
# Assay: AmyQ secretion efficiency, weighted average sort bin (1 = best secretion, 10 = worst) (bin number (weighted average, 1-10)); higher = lower secretion efficiency
# In short: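 The secretion score gives the average bin number weighted by read frequency and normalised to beads per bin, with low-abundance sequences excluded. Bins were 10 equally populated green/red fluorescence ratio fractions of occupied ~65 nL alginate beads, sorted by large-particle flow cytometry. The beads held fluorescein-starch and about 0.3 cells each of an amyE-integrated B. subtilis DB104 library fusing designed signal peptides to mature AmyQ, and they were grown about 13 h at room temperature and stained with nile red before sorting and Illumina sequencing.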
row,Sequence,AmyQ secretion efficiency
1,MKLSVKIAGVLTVAAAAMTAKMYFFPAATAKGN,6.16
2,MKKSYKATALFLGLTPAGANAADL,8.17
3,MKKIWIGMLAAAVLLLMVPKVDLADAA,4.2
4,MGKRGGSGSSLFISSAVLLSILLPSGQAHAQSA,1.07
5,MKWMCSICCAAVLLAGGAAASSSVVAQAEAV,3.55
6,MTGMLGSMLLITAGILVFFAVVVKDVFAAGL,4.32
7,MKKAFILSAAAAVGLFTFEEDEDEASAKEL,4.76
8,MKWMCSICCAAVLLAGGAAQLEAV,3.67
9,MKKIVSILFMFGLVMGFSQFQPSTVFAADK,3.41 and 2.54
10,MRIFKKARKKRRKSFLIATVNVNTAHAAID,6.58
11,MLKKIALTLCPAIVGSLLFFTAPASKHVS,5.12
12,MKRITINIITMFIAAAVISLTGTAEAAPK,2.12
13,MKKRLIAPMLLSAASLAFFAMSGSSQAAAY,4.08
14,MKRLLSTLLIGIMLLPKAPSAFAKQD,2.61
15,MKLAKRVSALTPSTTLAITAKEKEL,7.18
16,MRMLWRSLALCGLALTLALPCAQAAEP,2.19
17,MKNMSCKLVVSVTLFFSFLTIGPLAHFQNS,5.82
18,MTMLRKKTGWILLLCIIPLFAFTVIASGKEV,3.88
19,MLKFLKSNFRFLLAAALGISLLASSNFIKASND,3.52
20,MKKAKRKRLSVVLVTTVFLVKQQESVAQAKQL,5.44
21,MAIIIAIIAAVIVIAALITFNVRNDSPG,6.52
22,MKTKTLFIFSAILTLSIQAPNETFAQTA,2.35
23,MTKLKMLSMRSRMIASLFIFSSQALAVQY,3.8
24,MKRLLVSLRVWMVFLMNWVTPDRKTKAAAVY,7.79
25,MKIRKIKKKKRKSFGMLISAVPALAAGT,7.53
26,MRSYIKVLTMCFLGLILFVPTILADNS,2.6

row,Sequence,AmyQ secretion efficiency
1,MKQRRIMIFLTSFMLLAMTGQTALAKDV,3.05
2,MAIIIAIIAAVIVIAALITFNVRNPSPG,7.75
3,MKQFAITLSVLCALILLVPTLLVIPFQHNKAAGASV,4.37
4,MKNMSCKLVVSVTLFFSFLTIGPLCHAQNS,1.32
5,MKKTIMSFVAVAALSTTAFGAHRSAKEI,5.69
6,MYSKGLLAGALTATVLFGTCAVDVPGIISPKTAEAASQ,2.38
7,MRMLWRSLALCGLALTLAPCAQWAEP,5.9
8,MKRLCLWFTVFSLFLVLLPGKALGARR,2.37
9,MNKKYQTGQVCIIFTSALFPTFSSVTAAQG,3.64
10,MPYLKRVLLLLVTGLFMSLFAVTATASMQTG,1.29
11,MRSYIKFNFIISVLTMCFLGLILFVPTALADNS,1.36
12,MRFTKVVGFLSVLGLAASSILLLFSIVFPLTAQAEKA,2.15
13,MKNMSCKLVVSVTLFFSFLTIGPLAHCQNS,1.91
14,MKRSISKRKRCKKITLLTMGGMIASPASAAGT,6.02
15,MRFTKTRGQRQVLGLAAVFPLTAQAEKA,7.51
16,MKVCQKSIRFLVSLIIGTFVISVPFMANAQSD,1.22
17,MKRLCLWFTVFSLFLVLLPGKALGAVD,3.84
18,MNLRKILLSSALSLVSAAPVLATSS,3.92
19,MNKKKKVVSALSISALALSVSGVASAHEI,3.7
20,MKKSQYTTLFIVFICFFVLFSVHPIAAAAADS,2.98
21,MNKLKRLSMLTVMIASVFIFSSSHALAAQY,1.68
22,MRSYIKVLTMCFLGLILFVPTGLADNS,1.86
23,MKKVLMAFIICLSLILSGLAAPPSGAKAESV,2.28
24,MRSYIKVLTMCFLGLILFVPTALNDNS,6.3
25,MKRIRIPMTLALGAALTIAPLSFASAKKR,3.26
26,MKLWMRKTQKGLFTIVTFGLVSPPAALMADKP,5.07

row,Sequence,AmyQ secretion efficiency
1,MKKRLIAPMLLSAASLAFFAMSGSKQAAAY,3.82
2,MMIKQCKKCLSLLVFGTTAAHAEET,7.22
3,MKRTWNVCLTALLSVLLVAGSVPSHAEAKKP,1.85
4,MKRMIVRMTLPLLIVCLAFSSFSASARAASF,1.55
5,MKRLLVSLRVWMVFLMNWVTPDRKTTPSGAAAAVY,6.68
6,MKTLRTLCVLMILSGVIFFGLKIDVKDI,6.52
7,MKVLLSALLLLLFAEDEEEEASGKKL,5.86
8,MRSYIKVLTMCFLGLILFVPTFLADNS,5.95
9,MPYLKRVLLLLVTGLFMSLFIFLIVISAVTATASAQTG,1.25
10,MKKRKRRVSALTPSTTLAITAKAKEL,6.69
11,MFNRLFRVCFLAALIMAFEEEDDEVYAQKP,4.05
12,MAIIIAIIAAVIVIAALITFNVRNISPG,7.65
13,MKKKIRRKKKKSAVVGSSMAAAPAEAKTI,7.24
14,MKKKLAAGLTASAIVGTTLVVTPFEAATI,5.7
15,MRSYIKVLTMCFLGLILFVPTHLADNS,6.38
16,MKSKGSIMACLILFSFTITTFINEISAFSN,6.8
17,MKKRFFGPIILAFILFLFSSLAGAIAIPS,6.16
18,MPYLKRVLLLLVTGLFMSLFAVTATASQQTG,1.51
19,MMKKGLLAGALTATVLFGTCAVDVPKAEAASQ,1.63
20,MKKRITYSLLALLAVVAFAFTDSSKAKAAEE,2.71
21,MKKTIMSFVAVAALSTTAFGAHGVFPASASAKEI,3.09
22,MRKVLTMCFLGLILFVPTALADNS,2.17
23,MRSYIKVLTMCFLGLILFVPTSLADNS,2.69
24,MKVPKTMLLSTAAGLLLSLTATSVSAEEE,2.6
25,MSVMTTMLLSTAAGLLLSLTATSVSAHYV,4.5
26,MKMKSGMEQAVSVLLLLSRLPVQASFTSE,7.78

row,Sequence,AmyQ secretion efficiency
1,MRKKRVITCVMAASLTLGPAGYASAKED,3.6
2,MAIIIAIIAAVIVIAALITFNVRNMSPG,7.67
3,MKNMSCKLVVSVTLFFSFLTIGPLAHWQNS,5.85
4,MKSKWMSGLLLVAVGFSFTQVMVHAGET,6.97 and 4.43 and 7.09
5,MKSRTIWTIILGALLVCSAASSCIAVAYTLTKSQAGASSS,6.64
6,MKKWIYVVLVLSIAGIGGFSVHAAED,5.68
7,MRKKRVKRCKKKRSLTLGSLLPAGYASAKED,7.22
8,MKSKWMSGLLLVAVGFSFTQVMVHCGET,4.81
9,MTTKFTALAVFLKEHTQASLL,6.23
10,MKRLFMKASLVLFAVVFVFAVKGADAKAETH,2.52
11,MGMKKKLSLGVASAALGLALVGGGTWNAFN,6.68
12,MLKKIALTLCPAIVGSLLFFTAPASTHVS,5.85
13,MNFKKTVVSALSISALALVSVSGVASAHEI,3.04
14,MKKSQYGGQTFGLVMGFSQFQPSTVFAADK,6.36
15,MKLAKRVSALTPSTTLAITAKADEE,6.16
16,MKKRLIAPMLLSAASLAFFAMSGSRQAAAY,6.03
17,MKKTIMSFVAVAALSTTAFTGAHASAKEI,2.34
18,MRKKTKNRLISSVLSTVVISSLLFPGAAFAGASSK,1.5
19,MTTKFTALAVFLLCFMPAAKIEHTQASLL,4.17
20,MTKRGIQAFAGGIILATAVLAAVFRLTTFDQAAAV,5.37
21,MMIKQCVICLSLLVFGTRRKAHAEET,7.59
22,MKLRKVLTGSVLSLGLLPPSSPAFATSP,1.49
23,MGLGKKLSVAVAASFMSLSISLPGVQEAEG,6.02
24,MKWMCSICCAAVLLAGGACQAEAV,3.36
25,MRFTKVVGFLSVLGLAAVFPLTAQARKR,7.26
26,MKLKSKLFVICLAAAAIFRKKKVSANAEALDF,6.32

row,Sequence,AmyQ secretion efficiency
1,MKMKSGMEQAVSVLLLLSRLPVQYSLTSE,5.01
2,MKKRLIAPMLLSAASLAFFAMSGSPQAAAY,5.7
3,MTIFLMAVFVIMISFLIATVNVNTAHAAID,6.34
4,MKKKLAAGLTASAIVGTTLVVTPDEAATI,5.54
5,MKKTIMSFVAVAALSTTAFKRRHASAKEI,7.04
6,MKKRKRRNFKRFIAAFLVLALMISLVPADFLAKST,4.42
7,MKRKLLSSLAISALSLGLLVSAPTATFAAES,3.04
8,MNKPTKLKKKKALAAGMTAAAAGGAGTIHAQQP,8.12
9,MKKVLMAFIICLSLILSVLAAPPSGAKAARR,2.06
10,MFKKLLLATSALTFSLSLVLRRKKKHAKAQEV,5.87
11,MTKKAWFLPLVCVLLISGWLAPAASASWQTT,3.5
12,MPYLKRVLLLLVTGLFMSLFEEEATASAQTG,1.12
13,MKKKQVSHAIIISVMLSFVIAVFRRHRKHASELTP,7.4
14,MKKLFIFSAILTLSIFAPNETFAQTA,2.72
15,MKLWMRKTLVVLFTIVTFGLVSPPAAKMADKP,3.22
16,MNLRKILLSSALSLGMLVSAAPVLQTSS,5.33
17,MKKRRYFIVFICFFVLFSVHPIAAAAADS,3.35
18,MNIKKFAKQATVLTFTTALLAGGATQAFAKET [wt_31],3.5
19,MGLGKKLSVAVAASFMSLSISLPGVQMAEG,3.92
20,MFNRLFRVCFLAALIMAFTLPNSFYAQKP,6.02
21,MKKKLAAGLTASAIVGTTLVVTPYEAATI,5.36
22,MAIIIAIIAAVIVIAALITFNVRNNSPG,6.02
23,MKVCQKSIVRFLVSLIIGTFVISVPFMANAQDD,2.65
